We go through 1 substance from publication PMC8420761.

The stoichiometry N is a count of units in the complex or per binding partner.

The assay concerns the target Mycobacterium tuberculosis H37Rv HigA2 antitoxin (Mycobacterium tuberculosis H37Rv) (UniProt O53467). Briefly: not stated; in solution; purified MtHigA2.

The substance “Mycobacterium tuberculosis H37Rv HigA2 antitoxin (from UniProt O53467 1-101) (natural protein)” had a stoichiometry N of 2.
